Patent US20160108123A1 (Novartis, published 2016)

Tests used:
[1] = biological target: T1, human PD-L1 expressed on 300.19 cells (human, UniProt Q9NZQ7 19-290); assay: blocking of PE-labelled PD-1-Ig (0.7 µg/mL) binding to PD-L1-expressing 300.19 cells, FACS, 4 C, 4 h
T1 construct: whole, on cells; also called huPD-L1; PD-L1-expressing 300.19 cells
Protocol: (§1) Bound fluorescence was then measured using FACS and IC₅₀ values determined using Prism software.

[2] = biological target: T1, human PD-L1 expressed on 300.19 cells; assay: competition FACS against Alexa 488-labeled murine BAP058 on PD-L1-expressing 300.19 cells
Protocol: (§2) Incubations with the mAb mixtures having different concentration ratios of test mAb to labeled mAb was at 4° C. for 30 min. Bound labeled murine mAb was then quantified using a FACS machine. The experiment was performed twice.

[3] = biological target: rat PD-L1 protein (rat, UniProt D4AE25 19-239); assay: Biacore T-100; IgG captured by anti-human Fab on CM5 chip, PD-L1 flowed over (100-1.56 nM), 1:1 fit
Protocol: (§3) Immobilization was done at 25° C. using a flow rate of 10 μl/min. […] Test antibody was captured on Flow cell FC2, FC3 and FC4. […] Run Biacore Wizards Kinetic/Affinity: association time 120 sec, dissociation 600 sec. (Running buffer HBS-EP+BSA 0.25 mg/ml, Regeneration buffer: 10 mM glycine HCl pH 2.1). Data analyses were done with Biacore T-100 Evaluation software version 2, fit on 1:1.

[4] = biological target: T2, cynomolgus PD-L1 protein (cynomolgus, UniProt G7PSE7 19-238); assay: as above
T2 construct: also called Monkey PD-L1; cyno PD-L1
Protocol: as §3

[5] = biological target: T3, human PD-L1 protein (human, UniProt Q9NZQ7 19-238, limits assumed); assay: as above
T3 construct: Construct not described
Protocol: as §3

[6] = biological target: mouse PD-L1 protein (mouse, UniProt Q9EP73 19-238, limits assumed); assay: as above
Protocol: as §3

[7] = biological target: T1, human PD-L1 expressed on 300.19 cells; assay: semi-quantitative ranking in the binding studies (4th column, p-1058; FACS data, p-1056); high number = poorer binder; the column's head says only 'Rank'
[8] = biological target: T1, human PD-L1 expressed on 300.19 cells; assay: FACS competition on PD-L1-expressing 300.19 cells; competitor Alexa 488-labeled murine BAP058
Protocol: as §2

[9] = biological target: T1, human PD-L1 expressed on 300.19 cells; assay: FACS competition; blocking of PE-labelled PD-1-Ig (0.7 ug/mL) on PD-L1-expressing 300.19 cells
Protocol: as §1

T1 sequence (Q9NZQ7 19-290): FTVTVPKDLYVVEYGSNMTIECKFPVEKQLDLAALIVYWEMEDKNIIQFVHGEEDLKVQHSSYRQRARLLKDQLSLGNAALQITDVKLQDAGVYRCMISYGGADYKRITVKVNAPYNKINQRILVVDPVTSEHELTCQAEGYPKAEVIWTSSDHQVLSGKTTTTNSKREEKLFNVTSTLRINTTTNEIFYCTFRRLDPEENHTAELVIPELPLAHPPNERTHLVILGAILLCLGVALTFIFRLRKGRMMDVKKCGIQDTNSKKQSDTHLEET
Chain of mouse PD-L1 protein (Q9EP73 19-238 limits assumed): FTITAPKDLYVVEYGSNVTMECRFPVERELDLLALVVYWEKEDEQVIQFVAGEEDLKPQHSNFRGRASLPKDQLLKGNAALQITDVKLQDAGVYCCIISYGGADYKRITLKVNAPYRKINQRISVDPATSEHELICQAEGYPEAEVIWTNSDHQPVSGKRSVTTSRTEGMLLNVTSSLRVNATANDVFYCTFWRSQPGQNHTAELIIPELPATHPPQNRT
T3 sequence (Q9NZQ7 19-238 limits assumed): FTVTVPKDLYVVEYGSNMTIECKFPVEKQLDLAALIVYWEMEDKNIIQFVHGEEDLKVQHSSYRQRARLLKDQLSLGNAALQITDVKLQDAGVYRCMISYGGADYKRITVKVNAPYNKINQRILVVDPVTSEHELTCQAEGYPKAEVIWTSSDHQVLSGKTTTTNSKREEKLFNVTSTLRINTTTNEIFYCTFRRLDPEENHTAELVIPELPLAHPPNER
Chain of rat PD-L1 protein (D4AE25 entry or part of it limits assumed): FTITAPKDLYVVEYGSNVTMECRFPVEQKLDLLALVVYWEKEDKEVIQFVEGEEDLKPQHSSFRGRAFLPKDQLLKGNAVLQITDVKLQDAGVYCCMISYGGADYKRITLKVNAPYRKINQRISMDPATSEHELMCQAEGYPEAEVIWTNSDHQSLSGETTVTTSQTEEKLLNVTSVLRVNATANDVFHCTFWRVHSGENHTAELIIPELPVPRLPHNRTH
T2 sequence (G7PSE7 entry or part of it): as the sequence (Q9NZQ7 19-238 limits assumed) above, with A33T, A34S, S62N, R68Q, Q82R, F173L, T185A, T192I, H215L counted along it

IC50 (read off the curve) [1] | Comp. binding (ratio conc. test mAb / conc. labelled murine BAP058 at the IC50) [2] | Kd [3] | Kd [4] | Kd [5] | Kd [6] | Rank [7] | ratio for the IC50 value (concentration of test mAb over labelled murine BAP058) [8] | IC50 [9] | Binder
~0.04 µg/mL | 1.3 | 1.36 nM | 0.735 nM | 0.931 nM | 0.075 nM | 4 |  |  | BAP058-hum11 (antibody, human IgG4 S228P, kappa, V domains shown, Humanized IgG4(S228P)/human kappa mAb expressed in CHO cells) VH: EVQLVQSGAEVKKPGATVKISCKVSGYTFTSYWMYWVRQATGQGLEWMGRIDPNSGSTKYNEKFKNRVTITADKSTSTAYMELSSLRSEDTAVYYCARDYRKGLYAMDYWGQGTTVTVSS VL: DVVMTQSPLSLPVTLGQPASISCKASQDVGTAVAWYQQKPGQAPRLLIYWASTRHTGVPSRFSGSGSGTEFTLTISSLQPDDFATYYCQQYNSYPLTFGQGTKVEIKR
 |  |  |  |  |  |  | 1.34 | 0.3 nM | murine anti-PD-L1 monoclonal antibody BAP058 (antibody, V domains shown, Murine mAb; also called murine mAb BAP058; murine parent mAb) VH: QVHLQQPGAELVKPGASVKLSCKASGYTFTSYWMYWVKQGPGRGLEWIGRIDPNSGSTKYNEKFKNKATLTVDKSSSTAYMQLSSLTSEDSAVYYCARDYRKGLYAMDYWGQGTSVTVSS VL: DIVMTQSHKFMSTSVGDRVSITCKASQDVGTAVAWYQQKPGQSPKLLIYWASTRHTGVPDRFTGSGSGTDFTLTISNVQSEDLADYFCQQYNSYPLTFGAGSKLELK
~0.04 µg/mL | 2.91 | 0.431 nM | 0.431 nM | 0.137 nM | 0.04 nM | 2 |  |  | BAP058-hum13 (antibody, human IgG4 S228P, kappa, V domains shown, Humanized IgG4(S228P)/human kappa mAb expressed in CHO cells) VH: EVQLVQSGAEVKKPGATVKISCKVSGYTFTSYWMYWVRQARGQRLEWIGRIDPNSGSTKYNEKFKNRFTISRDNSKNTLYLQMNSLRAEDTAVYYCARDYRKGLYAMDYWGQGTTVTVSS VL: AIQLTQSPSSLSASVGDRVTITCKASQDVGTAVAWYLQKPGQSPQLLIYWASTRHTGVPSRFSGSGSGTDFTFTISSLEAEDAATYYCQQYNSYPLTFGQGTKVEIKR
